In test [1] the target is SG N-protein (SEQ ID NO:4). Briefly: cell-based or functional assay.
The target of test [2] is SB N-protein (SEQ ID NO:2). Briefly: cell-based or functional assay.

MPEG 20 kDa = 20 kDa MPEG from MPEG iodoacetamide

B1: PEGylated SG C-protein (residues 388 to 449 of SEQ ID NO:3) (other)
chain: GTLEHHHHHHGSEAVLNYNHRIVNIEAVSETIDVYDIEVPHTHNFALASGVFVHNSAGGC(MPEG 20 kDa)GP
As for B1, in test [1], the “efficiency of the trans-splicing, from SDS-PAGE protein band intensity; room temperature, molar ratio of C-protein to N-protein approximately 1 (Lane 9)” value was about 50% and the “efficiency of the trans-splicing, from SDS-PAGE protein band intensity; room temperature, molar ratio of C-protein to N-protein approximately 5 (Lane 13)” value was about 90%.

B2: PEGylated SB C-protein (residues 388 to 453 of SEQ ID NO:1) (other)
chain: GTLEHHHHHHGSPEIEKLSQSDIYWDPIVSITETGVEEVFDLTVPGPRNFVANDIIVHNSGGGC(MPEG 20 kDa)GP
B2: in test [2], the “efficiency of the trans-splicing reaction, from SDS-PAGE protein band intensity; molar ratio approximately 1” value was about 30%.

These data come from patent US20110124841A1 (published 2011).
